Numbered stars: 1 amine (or outer) side, 2 acyl side, 3 side chain; on linkers, the order of the positions; unused ones are H or OH. Bridge positions count the residues as written; N and C are the ends. Square brackets hold non-standard residues; d marks the D form. Ends that are not written are not given here. * marks the point of attachment. TATA = O=C(CC[*:1])N1CN(C(=O)CC[*:2])CN(C(=O)CC[*:3])C1; Tyr(2-F) = N[C@@H](Cc1ccc(O)cc1F)C(=O)O; Dopa = N[C@@H](Cc1ccc(O)c(O)c1)C(=O)O; 4Pal = N[C@@H](Cc1ccncc1)C(=O)O; dCha = N[C@H](CC1CCCCC1)C(=O)O; Cba = N[C@@H](CC1CCC1)C(=O)O; Pen = CC(C)(S)[C@H](N)C(=O)O; dNle = CCCC[C@@H](N)C(=O)O; dNva = CCC[C@@H](N)C(=O)O; NMeA = CN[C@@H](C)C(=O)O; Pent4ynoyl = C#CCCC(=O)*
B1: BCY18435 (peptide)
peptide: Ac-CN[Cba]PDYLC[dA]DEYC-NH2
modifications: linker 1-8-13 via TATA
SMILES: CC(=O)N[C@H]1CSCCC(=O)N2CN3CN(C2)C(=O)CCSC[C@H](NC(=O)[C@H](CC(C)C)NC(=O)[C@H](Cc2ccc(O)cc2)NC(=O)[C@H](CC(=O)O)NC(=O)[C@@H]2CCCN2C(=O)[C@H](CC2CCC2)NC(=O)[C@H](CC(N)=O)NC1=O)C(=O)N[C@H](C)C(=O)N[C@@H](CC(=O)O)C(=O)N[C@@H](CCC(=O)O)C(=O)N[C@@H](Cc1ccc(O)cc1)C(=O)N[C@H](C(N)=O)CSCCC3=O
notes: scaffold TATA
B2: BCY18441 (peptide)
peptide: Ac-CY[Cba]PNYLC[dA]DEYC-NH2
modifications: linker 1-8-13 via TATA
SMILES: CC(=O)N[C@H]1CSCCC(=O)N2CN3CN(C2)C(=O)CCSC[C@H](NC(=O)[C@H](CC(C)C)NC(=O)[C@H](Cc2ccc(O)cc2)NC(=O)[C@H](CC(N)=O)NC(=O)[C@@H]2CCCN2C(=O)[C@H](CC2CCC2)NC(=O)[C@H](Cc2ccc(O)cc2)NC1=O)C(=O)N[C@H](C)C(=O)N[C@@H](CC(=O)O)C(=O)N[C@@H](CCC(=O)O)C(=O)N[C@@H](Cc1ccc(O)cc1)C(=O)N[C@H](C(N)=O)CSCCC3=O
notes: scaffold TATA
B3: BCY18442 (peptide)
peptide: Ac-CY[Cba]PQYLC[dA]DEYC-NH2
modifications: linker 1-8-13 via TATA
SMILES: CC(=O)N[C@H]1CSCCC(=O)N2CN3CN(C2)C(=O)CCSC[C@H](NC(=O)[C@H](CC(C)C)NC(=O)[C@H](Cc2ccc(O)cc2)NC(=O)[C@H](CCC(N)=O)NC(=O)[C@@H]2CCCN2C(=O)[C@H](CC2CCC2)NC(=O)[C@H](Cc2ccc(O)cc2)NC1=O)C(=O)N[C@H](C)C(=O)N[C@@H](CC(=O)O)C(=O)N[C@@H](CCC(=O)O)C(=O)N[C@@H](Cc1ccc(O)cc1)C(=O)N[C@H](C(N)=O)CSCCC3=O
notes: scaffold TATA
B4: BCY19684 (peptide)
peptide: Ac-CY[Cba]PDYLC[dK](Pent4ynoyl)DEYC-NH2
modifications: linker 1-8-13 via TATA
SMILES: C#CCCC(=O)NCCCC[C@H]1NC(=O)[C@@H]2CSCCC(=O)N3CN(CN(C3)C(=O)CCSC[C@H](NC(C)=O)C(=O)N[C@@H](Cc3ccc(O)cc3)C(=O)N[C@@H](CC3CCC3)C(=O)N3CCC[C@H]3C(=O)N[C@@H](CC(=O)O)C(=O)N[C@@H](Cc3ccc(O)cc3)C(=O)N[C@@H](CC(C)C)C(=O)N2)C(=O)CCSC[C@@H](C(N)=O)NC(=O)[C@H](Cc2ccc(O)cc2)NC(=O)[C@H](CCC(=O)O)NC(=O)[C@H](CC(=O)O)NC1=O
notes: scaffold TATA
B5: BCY19685 (peptide)
peptide: Ac-CY[Cba]PDYLC[dNle]DEYC-NH2
modifications: linker 1-8-13 via TATA
SMILES: CCCC[C@H]1NC(=O)[C@@H]2CSCCC(=O)N3CN(CN(C3)C(=O)CCSC[C@H](NC(C)=O)C(=O)N[C@@H](Cc3ccc(O)cc3)C(=O)N[C@@H](CC3CCC3)C(=O)N3CCC[C@H]3C(=O)N[C@@H](CC(=O)O)C(=O)N[C@@H](Cc3ccc(O)cc3)C(=O)N[C@@H](CC(C)C)C(=O)N2)C(=O)CCSC[C@@H](C(N)=O)NC(=O)[C@H](Cc2ccc(O)cc2)NC(=O)[C@H](CCC(=O)O)NC(=O)[C@H](CC(=O)O)NC1=O
notes: scaffold TATA
B6: BCY19686 (peptide)
peptide: Ac-CY[Cba]PD[Dopa]LC[dA]DEYC-NH2
modifications: linker 1-8-13 via TATA
SMILES: CC(=O)N[C@H]1CSCCC(=O)N2CN3CN(C2)C(=O)CCSC[C@H](NC(=O)[C@H](CC(C)C)NC(=O)[C@H](Cc2ccc(O)c(O)c2)NC(=O)[C@H](CC(=O)O)NC(=O)[C@@H]2CCCN2C(=O)[C@H](CC2CCC2)NC(=O)[C@H](Cc2ccc(O)cc2)NC1=O)C(=O)N[C@H](C)C(=O)N[C@@H](CC(=O)O)C(=O)N[C@@H](CCC(=O)O)C(=O)N[C@@H](Cc1ccc(O)cc1)C(=O)N[C@H](C(N)=O)CSCCC3=O
notes: scaffold TATA
B7: BCY18440 (peptide)
peptide: Ac-CY[Cba][NMeA]DYLC[dA]DEYC-NH2
modifications: linker 1-8-13 via TATA
SMILES: CC(=O)N[C@H]1CSCCC(=O)N2CN3CN(C2)C(=O)CCSC[C@H](NC(=O)[C@H](CC(C)C)NC(=O)[C@H](Cc2ccc(O)cc2)NC(=O)[C@H](CC(=O)O)NC(=O)[C@H](C)N(C)C(=O)[C@H](CC2CCC2)NC(=O)[C@H](Cc2ccc(O)cc2)NC1=O)C(=O)N[C@H](C)C(=O)N[C@@H](CC(=O)O)C(=O)N[C@@H](CCC(=O)O)C(=O)N[C@@H](Cc1ccc(O)cc1)C(=O)N[C@H](C(N)=O)CSCCC3=O
notes: scaffold TATA
B8: BCY19689 (peptide)
peptide: Ac-[Pen]Y[Cba]PDYLC[dA]DEYC-NH2
modifications: linker 1-8-13 via TATA
SMILES: CC(=O)N[C@@H]1C(=O)N[C@@H](Cc2ccc(O)cc2)C(=O)N[C@@H](CC2CCC2)C(=O)N2CCC[C@H]2C(=O)N[C@@H](CC(=O)O)C(=O)N[C@@H](Cc2ccc(O)cc2)C(=O)N[C@@H](CC(C)C)C(=O)N[C@H]2CSCCC(=O)N3CN(CN(C3)C(=O)CCSC1(C)C)C(=O)CCSC[C@@H](C(N)=O)NC(=O)[C@H](Cc1ccc(O)cc1)NC(=O)[C@H](CCC(=O)O)NC(=O)[C@H](CC(=O)O)NC(=O)[C@@H](C)NC2=O
notes: scaffold TATA
B9: BCY18444 (peptide)
peptide: Ac-CY[Cba]PDYLC[dNva]DEYC-NH2
modifications: linker 1-8-13 via TATA
SMILES: CCC[C@H]1NC(=O)[C@@H]2CSCCC(=O)N3CN(CN(C3)C(=O)CCSC[C@H](NC(C)=O)C(=O)N[C@@H](Cc3ccc(O)cc3)C(=O)N[C@@H](CC3CCC3)C(=O)N3CCC[C@H]3C(=O)N[C@@H](CC(=O)O)C(=O)N[C@@H](Cc3ccc(O)cc3)C(=O)N[C@@H](CC(C)C)C(=O)N2)C(=O)CCSC[C@@H](C(N)=O)NC(=O)[C@H](Cc2ccc(O)cc2)NC(=O)[C@H](CCC(=O)O)NC(=O)[C@H](CC(=O)O)NC1=O
notes: scaffold TATA
B10: BCY18437 (peptide)
peptide: Ac-C[4Pal][Cba]PDYLC[dA]DEYC-NH2
modifications: linker 1-8-13 via TATA
SMILES: CC(=O)N[C@H]1CSCCC(=O)N2CN3CN(C2)C(=O)CCSC[C@H](NC(=O)[C@H](CC(C)C)NC(=O)[C@H](Cc2ccc(O)cc2)NC(=O)[C@H](CC(=O)O)NC(=O)[C@@H]2CCCN2C(=O)[C@H](CC2CCC2)NC(=O)[C@H](Cc2ccncc2)NC1=O)C(=O)N[C@H](C)C(=O)N[C@@H](CC(=O)O)C(=O)N[C@@H](CCC(=O)O)C(=O)N[C@@H](Cc1ccc(O)cc1)C(=O)N[C@H](C(N)=O)CSCCC3=O
notes: scaffold TATA
B11: BCY19683 (peptide)
peptide: Ac-CY[Cba]PDYLC[dCha]DEYC-NH2
modifications: linker 1-8-13 via TATA
SMILES: CC(=O)N[C@H]1CSCCC(=O)N2CN3CN(C2)C(=O)CCSC[C@H](NC(=O)[C@H](CC(C)C)NC(=O)[C@H](Cc2ccc(O)cc2)NC(=O)[C@H](CC(=O)O)NC(=O)[C@@H]2CCCN2C(=O)[C@H](CC2CCC2)NC(=O)[C@H](Cc2ccc(O)cc2)NC1=O)C(=O)N[C@H](CC1CCCCC1)C(=O)N[C@@H](CC(=O)O)C(=O)N[C@@H](CCC(=O)O)C(=O)N[C@@H](Cc1ccc(O)cc1)C(=O)N[C@H](C(N)=O)CSCCC3=O
notes: scaffold TATA

These binders were tested against T1, Human NKp46 Fc tag (Acro Biosystems, NC1-H5257) (human, UniProt O76036 22-255) (assay: SPR Method 1 and/or 2).
T1 construct: bought; also called Fc-tagged human NKp46
T1 sequence (O76036 22-255 limits assumed): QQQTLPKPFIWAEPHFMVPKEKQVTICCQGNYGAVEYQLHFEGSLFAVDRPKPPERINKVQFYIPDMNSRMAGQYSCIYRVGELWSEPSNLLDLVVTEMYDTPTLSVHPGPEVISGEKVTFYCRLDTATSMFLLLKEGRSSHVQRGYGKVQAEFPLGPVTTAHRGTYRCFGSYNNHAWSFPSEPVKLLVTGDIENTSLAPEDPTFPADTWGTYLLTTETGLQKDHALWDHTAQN
Description: The SPR analysis was run at 25° C. and a flow rate of 50 μl/min with 60 seconds association and 200-400 seconds dissociation time. Data were corrected for DMSO excluded volume effects. All data were double-referenced for blank injections and reference surface using standard processing procedures and data processing and kinetic fitting were performed using Scrubber software, version 2.0c (BioLogic Software). Data were fitted using simple 1:1 binding model allowing for mass transport effects where appropriate.
For analysis of peptide binding, a Biacore 8k+ instrument was used with a CM5 chip (Cytiva). All experiments were carried out at 25° C. Anti-human IgG (Fc) antibody (Cytiva) was immobilized on all flow cells by standard amine coupling chemistry. The running buffer was HBS-N(Cytiva, 10 mM HEPES, 0.15 M NaCl, pH 7.4) and the flow rate was 10 μL/min. The carboxymethyl dextran surface was activated with a 1:1 ratio of 0.4 M 1-ethyl-3-(3-dimethylaminopropyl) carbodiimide hydrochloride (EDC)/0.1 M N-hydroxy succinimide (NHS) (Cytiva) for 420s. […] Residual activated groups were blocked with a 420 s injection of 1 M ethanolamine (pH 8.5). The final surface density was 3000-5000 RU. Fc-tagged human NKp46 was diluted to 0.1 μM in HBS-N and was captured on flow cell 2 only of the sensor chip at a flow rate of 10 μL/min to 500-1000 RU. The buffer was then changed to PBS-P+(Cytiva) supplemented with 2% DMSO. […] The flow rate was 50 μL/min with 60 s association and 400 s dissociation. Data were corrected for DMSO volume exclusion effects. All data were double-referenced against blank injections and reference surface response using standard processing procedures. Data processing and kinetic fitting was performed using Biacore Insight Evaluation Software with Extended Screening and Characterization Extension (Cytiva). Data were fitted using steady state affinity 1:1 binding model to determine KD. Data were fitted using kinetic 1:1 binding model to determine kinetic constants where appropriate.

| Kd [nM] | Binder |
| --- | --- |
| 91 | B1 |
| 6.3 | Ac-CY[Cba]PDYLC[dV]DEYC-NH2 (linker 1-8-13 via TATA, scaffold TATA) [BCY18443] |
| 7.7 | B2 |
| 7.1 | B3 |
| 9 | Ac-CY[Cba]PDYLC[dF]DEYC-NH2 (linker 1-8-13 via TATA, scaffold TATA) [BCY19682] |
| 17 | Ac-[dC]Y[Cba]PDYLC[dA]DEYC-NH2 (linker 1-8-13 via TATA, scaffold TATA) [BCY19693] |
| 9.4 | B4 |
| 10 | B5 |
| 44 | B6 |
| 22 | ACYLPDYLCGDEYCA-NH2 (linker 2-9-14 via TATA; also: scaffold: TATA, TATB or TBMT, scaffold TATA) [BCY18470] |
| 149 | B7 |
| 19 | Ac-CY[Cba]PDYL[Pen][dA]DEYC-NH2 (linker 1-8-13 via TATA, scaffold TATA) [BCY19690] |
| 16 | B8 |
| 3.9 | B9 |
| 47 | B10 |
| 10 | B11 |
| 28 | Ac-CY[Cba]PD[Tyr(2-F)]LC[dA]DEYC-NH2 (linker 1-8-13 via TATA, scaffold TATA) [BCY19687] |

From US20240108738A1 (Bicycle, published 2024)
